Experimental data published in patent US20100137208A1, “INTRATUMORALLY ADMINISTERED LACTOFERRIN IN THE TREATMENT OF MALIGNANTNEOPLASMS AND OTHER HYPERPROLIFERATIVE DISEASES” (priority 2002, published 2010).
Where “and” joins values, the source holds several entries; their conditions need not be identical. Equal values may be shown once. Marks after values point to notes of the source that are not given here.

Assays:
[1] = system: O12 human oropharyngeal squamous cell carcinoma tumor cells; test: Intratumoral rhLF in O12 tumors in nude mice; type: in vivo, athymic nude mice
Procedure: O12 human oropharyngeal squamous cell carcinoma tumor cells were injected to the right flank of athymic nude mice. Recombinant human lactoferrin and vehicle controls were dosed via intratumoral injection. Each animal was administered different concentrations of rhLF in 50 μL doses consisting of four separate injections of approximately 12.5 μL of the dose, at different directions and angles (approximately S/N/E/W) to ensure that the dose was distributed evenly throughout the tumor (fanning).
In this study, rhLF was administered directly into the tumor. Each animal was tracked daily for tumor growth by external caliper measurements of the protruding tumor.

YAC targets = test: NK activity ex vivo after oral rhLF (LDH release test); type: in vivo, Balb/c naïve mice; settings: for % Cytotoxicity Final (NK activity): oral 300 mg/kg/day 3 days, spleen NK cells day 4
Procedure: Balb/c naïve mice were treated orally with rhLF or placebo once a day for 3 days (see Table 4).
On day 4, mice were sacrificed and spleens were collected. NK cells were separated using a magnetic bead cell sorting assay (MACS anti-NK-DX5) and counted. Cells were then tested in vitro for NK-activity against YAC targets using a lactate dehydrogenase (LDH) release test.
Balb/c naïve mice were treated orally with rhLF or placebo once a day for 3 days. One day later (day 4), mice were sacrificed and spleens collected. NK cells were separated using a magnetic bead cell sorting assay (MACS anti-NK-DX5) and counted. Cells were then tested in vitro for NK-activity against YAC targets using a lactate dehydrogenase (LDH) release test.

[2] = system: Human squamous cell carcinoma (O12); test: Inhibition of tumor growth by rhLF in O12 tumor model in mice; type: in vivo, athymic nude mice
Procedure: Human squamous cell carcinoma (O12) was used. The cells were injected into the right flank of athymic nude mice. rhLF was administered either intratumorally (49 animals, 7 doses ranging from 0.05 μg to 125 μg per dose), intravenously (7 animals, 125 μg/dose) or orally (7 animals 20 mg/dose). Control animals were treated with only the vehicle; no rhLF was administered to the control animals. rhLF was administered twice a day for either five days (intravenous group) or eight days (all other groups) starting 11 days after inoculation with tumor cells to allow formation of established tumors.
The efficacy of treatment was evaluated by measuring the solid tumor size during and at the end of the experiment; the body weights were also determined at the time of tumor measurements.

B1: rhLF: recombinant human lactoferrin, a single chain metal binding glycoprotein (protein, UniProt P02788 20-710, looked up)
Lactotransferrin: GRRRSVQWCAVSQPEATKCFQWQRNMRKVRGPPVSCIKRDSPIQCIQAIAENRADAVTLDGGFIYEAGLAPYKLRPVAAEVYGTERQPRTHYYAVAVVKKGGSFQLNELQGLKSCHTGLRRTAGWNVPIGTLRPFLNWTGPPEPIEAAVARFFSASCVPGADKGQFPNLCRLCAGTGENKCAFSSQEPYFSYSGAFKCLRDGAGDVAFIRESTVFEDLSDEAERDEYELLCPDNTRKPVDKFKDCHLARVPSHAVVARSVNGKEDAIWNLLRQAQEKFGKDKSPKFQLFGSPSGQKDLLFKDSAIGFSRVPPRIDSGLYLGSGYFTAIQNLRKSEEEVAARRARVVWCAVGEQELRKCNQWSGLSEGSVTCSSASTTEDCIALVLKGEADAMSLDGGYVYTAGKCGLVPVLAENYKSQQSSDPDPNCVDRPVEGYLAVAVVRRSDTSLTWNSVKGKKSCHTAVDRTAGWNIPMGLLFNQTGSCKFDEYFSQSCAPGSDPRSNLCALCIGDEQGENKCVPNSNERYYGYTGAFRCLAENAGDVAFVKDVTVLQNTDGNNNEAWAKDLKLADFALLCLDGKRKPVTEARSCHLAMAPNHAVVSRMDKVERLKQVLLHQQAKFGRNGSDCPDKFCLFQSETKNLLFNDNTECLARLHGKTTYEKYLGPQYVAGITNLKKCSTSPLLEACEFLRK
- reduction of rates of tumor growth versus pooled placebo ([1]; Group A, single intratumoral dose (100-500 μg), day 11 after the administration): 50%
- reduction of rates of tumor growth versus pooled control group ([1]; Group C, intratumoral twice daily for 8 days (25-500 μg per dose)): 56%
- relative increase of NK activity over placebo-treated animals (YAC targets; 30:1 E:T ratio): 243%
- % Cytotoxicity Increased over ctrl (YAC targets; E:T ratio 3.7:1, versus placebo group): 0%
- % Cytotoxicity Increased over ctrl (YAC targets; E:T ratio 7.5:1, versus placebo group): 0%
- % Cytotoxicity Increased over ctrl (YAC targets; E:T ratio 15:1, versus placebo group): 1.3%
- % Cytotoxicity Increased over ctrl (YAC targets; E:T ratio 30:1, versus placebo group): 7** %
- % Cytotoxicity Final (NK activity) (YAC targets; E:T ratio 3.7:1): 0%
- % Cytotoxicity Final (NK activity) (YAC targets; E:T ratio 7.5:1): 0.44%
- % Cytotoxicity Final (NK activity) (YAC targets; E:T ratio 15:1): 4.12%
- % Cytotoxicity Final (NK activity) (YAC targets; E:T ratio 30:1, 300 mg/kg/day): 10% and 9.81%
- Inhibition Relative to Placebo (tumor growth) ([2]; Intratumoral, 0.05 μg to 125 μg per dose twice a day for eight days, N = 49, Day 19): 28%
- Inhibition Relative to Placebo (tumor growth) ([2]; Intratumoral, 0.05 μg to 125 μg per dose twice a day for eight days, N = 49, Day 28): 46%
- Inhibition Relative to Placebo (tumor growth) ([2]; Intravenous, 125 μg/dose twice a day for five days, N = 7, Day 19): 55%
- Inhibition Relative to Placebo (tumor growth) ([2]; Intravenous, 125 μg/dose twice a day for five days, N = 7, Day 28): 65%
- Inhibition Relative to Placebo (tumor growth) ([2]; Oral, 20 mg/dose twice a day for eight days, N = 7, Day 19): 76%
- Inhibition Relative to Placebo (tumor growth) ([2]; Oral, 20 mg/dose twice a day for eight days, N = 7, Day 28): 80%
- reduced rates of tumor growth relative to the control ([2]; across intratumoral, intravenous and oral routes): 46% to 80
